Assay results: patent US20090062189A1, “TUMOR SUPPRESSOR PROTEIN AND NUCLEOTIDE ENCODING SAME” (priority 2006, published 2009)

What was measured:
DU 145 cells = assay: Trypan blue dye exclusion cell viability assay; format: cell-based, human; details: for viability of the cells: DU 145, mean ± S.E.
PC-3 cells [1] = assay: Trypan blue dye exclusion cell viability assay; format: cell-based, human; details: for viability of the cells: mean ± S.E.
22Rv1 cells [2] = assay: Trypan blue dye exclusion cell viability assay; format: cell-based, human; details: for viability of the cells: mean ± S.E.
MCF-7 cells [3] = assay: Trypan blue dye exclusion cell viability assay; format: cell-based, human; details: for viability of the cells: mean ± S.E.
Hep-G2 cells [4] = assay: Trypan blue dye exclusion cell viability assay; format: cell-based, human; details: for viability of the cells: mean ± S.E.
LNCaP cells [5] = assay: Trypan blue dye exclusion cell viability assay; format: cell-based, human
Procedure: The effects of sPDZD2 on cell viability were monitored by trypan blue dye exclusion assays. Data are shown as mean±S.E. Two group comparisons were analyzed by unpaired Student's t test. The level of significance for all statistical analyses was set at P<0.05. P<0.001 compared to control.

LNCaP cells [6] = assay: Cell Death Detection ELISA PLUS apoptosis assay; format: cell-based, human
Procedure: Data are shown as mean±S.E. Two group comparisons were analyzed by unpaired Student's t test. The level of significance for all statistical analyses was set at P<0.05. *** P<0.001 compared to control.

[7] = test system: DU145 prostate cancer xenograft tumors; assay: DU145 prostate cancer xenograft tumor volume in nude mice; format: in vivo, male BALB/c athymic nude mice
Procedure: Data are shown as mean±S.E. Two group comparisons were analyzed by unpaired Student's t test. The level of significance for all statistical analyses was set at P<0.05. * P<0.05 compared to saline-treated control.
For in vivo studies, DU145 cancer cells (5×10^6) in 0.2 ml FBS-containing-EMEM medium were injected subcutaneously into the right flank of each male BALB/c athymic nude mice (weight, 20±2 g). After cancer cell injection, the mice were randomly divided into 3 groups, namely the control, low-dose treatment, and high-dose treatment groups. Ten days after tumor cell implantation, each mouse of the low-dose treatment group and high-dose treatment group was injected, respectively, once daily by the intraperitoneal route with 0.084 mg (in 0.1 ml saline) and 8.4 mg (in 0.1 ml saline) recombinant sPDZD2 for 58 days. The width and length of the tumor in millimeters were measured weekly by a caliper, when the implanted tumor became measurable. The tumor volume was calculated according to the following formula: Volume=d^2×D/2 mm^3, where d is the shorter width and D was the longer length.

DU145 cells = assay: MTS cell proliferation assay
Procedure: (§1) To determine whether or not alterations in PDZD2 and sPDZD2 levels in inhibitor-treated cells are associated with any changes in the cell growth rate, we also monitored DU145, PC-3, 22Rv1, MCF-7 and Hep-G2 cell proliferation by MTS-based assays. Cell proliferation was measured by a tetrazolium-based Cell Titer 96® AQucous assay kit (Promega). Absorbance at 490 nm was recorded 3 hours after MTS addition.
(§2) Cell proliferation was measured by a tetrazolium-based Cell Titer 96® AQucous assay kit (Promega). Absorbance at 490 nm was recorded 3 hours after MTS addition. […] The number of viable cells was counted using hemocytometers. Any apoptotic effect on cancer cells induced by sPDZD2 was measured by the Cell Death Detection ELISA^PLUS assay kit (Roche), which detects the presence of mono- and oligonucleosomes in the cytoplasm of the cells after lysis. Briefly, the cancer cells (1×10^5/ml) were seeded in 24-well plates and treated with 10^−8 M and 10^−7 M sPDZD2 for 24 hours. After treatment, cells were harvested and any apoptosis was detected according to manufacturer's instructions.

PC-3 cells [8] = assay: MTS cell proliferation assay
Procedure: as §1, §2

22Rv1 cells [9] = assay: MTS cell proliferation assay
Procedure: as §1, §2

MCF-7 cells [10] = assay: MTS cell proliferation assay
Procedure: as §1, §2

Hep-G2 cells [11] = assay: MTS cell proliferation assay
Procedure: as §1, §2

[12] = 10^−9 M, 10^−8 M, 10^−7 M sPDZD2, 24 and 48 hours, P<0.001
[13] = co-incubation 10^−8 M sPDZD2 with 10 μM Z-DEVD-FMK, 48 hours

B1: sPDZD2: secreted 37 kDa cleavage product of human PDZD2, tumor suppressor protein of SEQ ID NO: 2; recombinant form carries N-terminal AGH (protein)
chain: LDKLCSEDYSAGPSAVLFKTELEITPRRSPGPPAGGVSCPEKGGNRACPGGSGPKTSAAETPSSASDTGEAAQDLPFRRSWSVNLDQLLVSAGDQQRLQSVLSSVGSKSTILTLIQEAKAQSENEEDVCFIVLNRKEGSGLGFSVAGGTDVEPKSITVHRVFSQGAASQEGTMNRGDFLLSVNGASLAGLAHGNVLKVLHQAQLHKDALVVIKKGMDQPRPSARQEPPTANGKGLLSRKTIPLEPGIGRSVAVHDALCVEVLKTSAGLGLSLDGGKSSVTGDGPLVIKRVYKGGAAEQAGIIEAGDEILAINGKPLVGLMHFDAWNIMKSVPEGPVQLLIRKHRNSS
**Q.** B1 was tested. Which “viability of the cells” value (DU 145 cells; 10^−7M sPDZD2, 24 hrs.) did it give?
**A.** 93.78 ± 1.06%

**Q.** And the “viability of the cells” value (DU 145 cells; 10^−7M sPDZD2, 48 hrs.)?
**A.** 95.25 ± 0.88%

**Q.** What about the “viability of the cells” value (DU 145 cells; 10^−8M sPDZD2, 24 hrs.) of the same molecule?
**A.** 94.66 ± 0.69%

**Q.** What about the “viability of the cells” value (DU 145 cells; 10^−8M sPDZD2, 48 hrs.) of the same molecule?
**A.** 95.09 ± 1.02%

**Q.** And the “changes in cell viability (in words)” value (DU 145 cells; DU145, sPDZD2, 24 and 48 hours)?
**A.** No changes

**Q.** What about the “viability of the cells” value (PC-3 cells [1]; 10^−7M sPDZD2, 24 hrs.) of the same molecule?
**A.** 90.86 ± 1.12%

**Q.** What about the “viability of the cells” value (PC-3 cells [1]; 10^−7M sPDZD2, 48 hrs.) of the same molecule?
**A.** 95.45 ± 0.56%

**Q.** What about the “viability of the cells” value (PC-3 cells [1]; 10^−8M sPDZD2, 24 hrs.) of the same molecule?
**A.** 95.03 ± 1.00%

**Q.** And the “viability of the cells” value (PC-3 cells [1]; 10^−8M sPDZD2, 48 hrs.)?
**A.** 95.49 ± 0.79%

**Q.** And the “changes in cell viability (in words)” value (PC-3 cells [1]; sPDZD2, 24 and 48 hours)?
**A.** No changes

**Q.** What about the “viability of the cells” value (22Rv1 cells [2]; 10^−7M sPDZD2, 24 hrs.) of the same molecule?
**A.** 96.04 ± 0.50%

**Q.** And the “viability of the cells” value (22Rv1 cells [2]; 10^−7M sPDZD2, 48 hrs.)?
**A.** 92.65 ± 0.48%

**Q.** And the “viability of the cells” value (22Rv1 cells [2]; 10^−8M sPDZD2, 24 hrs.)?
**A.** 96.01 ± 0.38%

**Q.** What about the “viability of the cells” value (22Rv1 cells [2]; 10^−8M sPDZD2, 48 hrs.) of the same molecule?
**A.** 93.02 ± 0.47%

**Q.** What about the “changes in cell viability (in words)” value (22Rv1 cells [2]; sPDZD2, 24 and 48 hours) of the same molecule?
**A.** No changes

**Q.** What about the “viability of the cells” value (MCF-7 cells [3]; 10^−7M sPDZD2, 24 hrs.) of the same molecule?
**A.** 97.34 ± 0.42%

**Q.** And the “viability of the cells” value (MCF-7 cells [3]; 10^−7M sPDZD2, 48 hrs.)?
**A.** 92.07 ± 0.89%

**Q.** What about the “viability of the cells” value (MCF-7 cells [3]; 10^−8M sPDZD2, 24 hrs.) of the same molecule?
**A.** 96.69 ± 0.50%

**Q.** What about the “viability of the cells” value (MCF-7 cells [3]; 10^−8M sPDZD2, 48 hrs.) of the same molecule?
**A.** 93.86 ± 0.76%

**Q.** And the “changes in cell viability (in words)” value (MCF-7 cells [3]; sPDZD2, 24 and 48 hours)?
**A.** No changes

**Q.** And the “viability of the cells” value (Hep-G2 cells [4]; 10^−7M sPDZD2, 24 hrs.)?
**A.** 93.37 ± 0.54%

**Q.** What about the “viability of the cells” value (Hep-G2 cells [4]; 10^−7M sPDZD2, 48 hrs.) of the same molecule?
**A.** 93.58 ± 0.64%

**Q.** What about the “viability of the cells” value (Hep-G2 cells [4]; 10^−8M sPDZD2, 24 hrs.) of the same molecule?
**A.** 93.38 ± 0.54%

**Q.** And the “viability of the cells” value (Hep-G2 cells [4]; 10^−8M sPDZD2, 48 hrs.)?
**A.** 93.64 ± 0.66%

**Q.** What about the “changes in cell viability (in words)” value (Hep-G2 cells [4]; sPDZD2, 24 and 48 hours) of the same molecule?
**A.** No changes

**Q.** And the “decrease in cell viability” value (LNCaP cells [5]; 10^−7 M sPDZD2, 24 hours)?
**A.** 26.2%

**Q.** And the “decrease in cell viability” value (LNCaP cells [5]; 10^−7 M sPDZD2, 48 hours)?
**A.** 18.6%

**Q.** And the “decrease in cell viability” value (LNCaP cells [5]; 10^−8M sPDZD2, 48 hours)?
**A.** 14.7%

**Q.** What about the “absorbance at 405 nm (mono- and oligo-nucleosomes in the cell cytoplasm, apoptosis)” value (LNCaP cells [6]; 10^−7 M sPDZD2, 24 hours) of the same molecule?
**A.** Significant (P<0.001) increases

**Q.** And the “absorbance at 405 nm (mono- and oligo-nucleosomes in the cell cytoplasm, apoptosis)” value (LNCaP cells [6]; sPDZD2, 24 hours)?
**A.** Significant (P<0.001) increases

**Q.** And the “tumor volumes compared with saline-treated group” value ([7]; high dose 8.4 mg once daily intraperitoneal for 58 days, at 39, 46, 53, 60 and 67 days after tumor cell implantation)?
**A.** significant decreases

**Q.** And the “tumor volumes compared with saline-treated group” value ([7]; low dose 0.084 mg once daily intraperitoneal for 58 days)?
**A.** No significant differences

**Q.** And the “decrease in cell proliferation” value (DU145 cells; 10^−7 M sPDZD2, 24 hours)?
**A.** 29.9%

**Q.** And the “decrease in cell proliferation” value (DU145 cells; 10^−7 M sPDZD2, 48 hours)?
**A.** 43.5%

**Q.** What about the “decrease in cell proliferation” value (DU145 cells; 10^−8 M sPDZD2, 24 hours) of the same molecule?
**A.** 25.8%

**Q.** And the “decrease in cell proliferation” value (DU145 cells; 10^−8 M sPDZD2, 48 hours)?
**A.** 38.6%

**Q.** And the “effect on cell proliferation (in words)” value (DU145 cells; [12])?
**A.** concentration-dependent inhibition

**Q.** And the “effect on the increase in cell proliferation induced by caspase-3 inhibitor treatment” value (DU145 cells; [13])?
**A.** abolished

**Q.** What about the “decrease in cell proliferation” value (PC-3 cells [8]; 10^−7 M sPDZD2, 24 hours) of the same molecule?
**A.** 22.6%

**Q.** And the “decrease in cell proliferation” value (PC-3 cells [8]; 10^−7 M sPDZD2, 48 hours)?
**A.** 41.6%

**Q.** What about the “decrease in cell proliferation” value (PC-3 cells [8]; 10^−8M sPDZD2, 24 hours) of the same molecule?
**A.** 13.5%

**Q.** And the “decrease in cell proliferation” value (PC-3 cells [8]; 10^−8 M sPDZD2, 48 hours)?
**A.** 23.8%

**Q.** What about the “effect on cell proliferation (in words)” value (PC-3 cells [8]; [12]) of the same molecule?
**A.** concentration-dependent inhibition

**Q.** What about the “effect on the increase in cell proliferation induced by caspase-3 inhibitor treatment” value (PC-3 cells [8]; [13]) of the same molecule?
**A.** abolished

**Q.** And the “decrease in cell proliferation” value (22Rv1 cells [9]; 10^−7 M sPDZD2, 24 hours)?
**A.** 15.4%

**Q.** What about the “decrease in cell proliferation” value (22Rv1 cells [9]; 10^−7 M sPDZD2, 48 hours) of the same molecule?
**A.** 27.7%

**Q.** What about the “decrease in cell proliferation” value (22Rv1 cells [9]; 10^−8 M sPDZD2, 24 hours) of the same molecule?
**A.** 12.7%

**Q.** And the “effect on cell proliferation (in words)” value (22Rv1 cells [9]; [12])?
**A.** concentration-dependent inhibition

**Q.** And the “effect on the increase in cell proliferation induced by caspase-3 inhibitor treatment” value (22Rv1 cells [9]; [13])?
**A.** abolished

**Q.** What about the “decrease in cell proliferation” value (22Rv1 cells [9]; sPDZD2, 48 hours) of the same molecule?
**A.** 21.7%

**Q.** And the “decrease in cell proliferation” value (MCF-7 cells [10]; 10^−7 M sPDZD2 (first-named of '10^−7 M and 10^−7 M'), 24 hours)?
**A.** 14.5%

**Q.** What about the “decrease in cell proliferation” value (MCF-7 cells [10]; 10^−7 M sPDZD2 (second-named), 24 hours) of the same molecule?
**A.** 23.2%

**Q.** And the “decrease in cell proliferation” value (MCF-7 cells [10]; 10^−7 M sPDZD2, 48 hours)?
**A.** 21.4%

**Q.** And the “effect on cell proliferation (in words)” value (MCF-7 cells [10]; [12])?
**A.** concentration-dependent inhibition

**Q.** What about the “decrease in cell proliferation” value (MCF-7 cells [10]; 1108 M sPDZD2, 48 hours) of the same molecule?
**A.** 13.7%

**Q.** What about the “effect on the increase in cell proliferation induced by caspase-3 inhibitor treatment” value (MCF-7 cells [10]; [13]) of the same molecule?
**A.** abolished

**Q.** And the “decrease in cell proliferation” value (Hep-G2 cells [11]; 10^−7 M sPDZD2, 24 hours)?
**A.** 23.1%

**Q.** What about the “decrease in cell proliferation” value (Hep-G2 cells [11]; 10^−7 M sPDZD2, 48 hours) of the same molecule?
**A.** 22.2%

**Q.** And the “decrease in cell proliferation” value (Hep-G2 cells [11]; 10^−8 M sPDZD2, 24 hours)?
**A.** 21%

**Q.** And the “decrease in cell proliferation” value (Hep-G2 cells [11]; 10^−8 M sPDZD2, 48 hours)?
**A.** 17%

**Q.** And the “effect on cell proliferation (in words)” value (Hep-G2 cells [11]; [12])?
**A.** concentration-dependent inhibition

**Q.** And the “effect on the increase in cell proliferation induced by caspase-3 inhibitor treatment” value (Hep-G2 cells [11]; [13])?
**A.** abolished
